Laboratory results from paper PMC6282072.

What was measured:
[1] = target: porcine cardiac ventricular myosin (βmys) (porcine) (UniProt P79293)
[2] = target: porcine cardiac ventricular myosin (βmys) (porcine) (UniProt P79293); remark: listed apart in the source

actin-activated myosin ATPase, Km (0.6 µM myosin titrated with 1–50 µM F-actin, 25 mM KCl, 21°C) [1]: 3.7 µM
actin-activated myosin ATPase, Km (value of the running text) [2]: 3.6 µM
Substance: bovine ventricular actin (cardiac actin) (from UniProt Q3ZC07 1-377) (natural protein)
